Test results from US20240287163A1 (Chugai, published 2024).
Numbering of substitutions follows the chain as printed.

Legend:
Experiment in all cases: SPR (Biacore T200), antibody captured on protein L, FcγR injected
[1] = biological target: T1, cynomolgus Fc gamma receptor IIa2 (cynomolgus monkey)
T1 construct: also called cyFcγRIIa2
T1 chain: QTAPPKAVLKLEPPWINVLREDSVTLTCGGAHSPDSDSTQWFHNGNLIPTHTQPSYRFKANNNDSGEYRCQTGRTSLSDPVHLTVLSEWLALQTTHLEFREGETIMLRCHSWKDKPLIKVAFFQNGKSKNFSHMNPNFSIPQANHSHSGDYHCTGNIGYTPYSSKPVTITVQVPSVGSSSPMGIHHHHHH
Method: (§1) The binding property of each sample to FcγRs at pH7.4 was determined at 25° C. using BIACORE® T200 instrument (Cytiva). First, protein L (BioVision) was immobilized onto all of the flow cells of a CM4 sensor chip using Amine Coupling Kit, type2 (Cytiva). 50 mM phosphate buffer (pH7.4) containing 150 mM NaCl, 0.05% Tween® 20 was used as the running buffer, and antibodies with the binding response of which were prepared to 500 RU or 2000 RU were captured on the sensor surface. Human and monkey FcγRs diluted with the running buffer were injected thereto and the amount bound with the antibodies was measured. hFcγRIa and cyFcγRIa were diluted to 8 nM, and the rest were diluted to 1000 nM. The sensor surface was regenerated every cycle, using 10 mM glycine hydrochloride solution, pH1.5 (prepared in-house).

[2] = biological target: T2, cynomolgus Fc gamma receptor IIIa (S) (cynomolgus monkey, UniProt Q8SPW2 21-206 at identity 1.00))
T2 construct: also called cyFcγRIIIa(S)
T2 chain: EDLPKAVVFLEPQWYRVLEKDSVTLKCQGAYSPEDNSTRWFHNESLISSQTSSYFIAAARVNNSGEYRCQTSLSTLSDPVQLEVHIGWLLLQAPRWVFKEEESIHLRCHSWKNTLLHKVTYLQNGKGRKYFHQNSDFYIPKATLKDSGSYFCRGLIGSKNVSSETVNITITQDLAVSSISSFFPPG
Method: as §1

[3] = biological target: T3, cynomolgus Fc gamma receptor IIa1 (cynomolgus monkey)
T3 construct: also called cyFcγRIIa1
T3 chain: T1 chain with T95P, A121T, K127I, S128A, N130K, N135D, Q142R
Method: as §1

[4] = biological target: T4, cynomolgus Fc gamma receptor IIIa (R) (cynomolgus monkey, UniProt Q8SPW2 17-208)
T4 construct: also called cyFcγRIIIa(R)
T4 sequence (Q8SPW2 other isoform, or with tags, fused parts or gaps): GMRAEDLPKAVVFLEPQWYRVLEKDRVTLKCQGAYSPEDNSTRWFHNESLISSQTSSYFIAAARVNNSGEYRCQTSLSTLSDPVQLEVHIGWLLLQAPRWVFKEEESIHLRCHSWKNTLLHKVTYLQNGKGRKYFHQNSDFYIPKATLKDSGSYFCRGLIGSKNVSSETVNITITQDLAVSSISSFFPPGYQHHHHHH
Method: as §1

[5] = biological target: T5, cynomolgus Fc gamma receptor IIa3 (cynomolgus monkey)
T5 construct: also called cyFcγRIIa3
T5 chain: T1 chain with K127I, N130K, H133P, Q142R
Method: as §1

[6] = biological target: T6, cynomolgus Fc gamma receptor IIb (cynomolgus monkey)
T6 construct: also called cyFcγRIIb
T6 chain: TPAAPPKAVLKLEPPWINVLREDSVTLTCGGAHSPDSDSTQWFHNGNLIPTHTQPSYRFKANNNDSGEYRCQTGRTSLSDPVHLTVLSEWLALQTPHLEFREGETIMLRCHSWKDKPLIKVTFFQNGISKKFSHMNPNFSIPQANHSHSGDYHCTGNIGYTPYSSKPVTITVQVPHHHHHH
Method: as §1

[7] = biological target: T7, cynomolgus Fc gamma receptor Ia (cynomolgus monkey, UniProt P12314 16-288 (human entry))
T7 construct: also called cyFcγRIa
T7 chain: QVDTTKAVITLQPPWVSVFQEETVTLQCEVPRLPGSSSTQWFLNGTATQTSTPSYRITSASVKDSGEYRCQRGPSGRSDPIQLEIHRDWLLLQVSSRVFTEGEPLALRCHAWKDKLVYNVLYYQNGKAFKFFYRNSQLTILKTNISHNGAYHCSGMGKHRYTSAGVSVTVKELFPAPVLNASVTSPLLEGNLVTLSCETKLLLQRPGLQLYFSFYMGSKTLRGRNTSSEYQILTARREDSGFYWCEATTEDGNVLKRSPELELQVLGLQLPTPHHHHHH
Method: as §1

Measured: binding result

B1: COS0637pHv2-FcgSil (antibody)
heavy: QVQLVESGGGVVQPGRSLRLSCAASGFRFSAYAMNWIRQPPGKGLEWIGLIYGKGSTFYASWAKERVTISVDTSKNQFSLKLSSVTAADTAVYYCARGRSVNYNSDFHLWGQGTLVTVSSASTKGPSVFPLAPSSKSTSGGTAALGCLVKDYFPEPVTVSWNSGALTSGVHTFPAVLQSSGLYSLSSVVTVPSSSLGTQTYICNVNHKPSNTKVDKRVEPKSCDKTHTCPPCPAPELRRGPSVFLFPPKPKDTLMISRTPEVTCVVVDVSDEDPEVKFNWYVDGVEVHNAKTKPREELYNSTYRVVSVLTVLHRDWLNGKEYKCKVSNTALPKPIEKTISKAKGQRREPQVYTLPPSREEMTKNQVSLTCLVKGFYPSDIAVEWESNGQPENNYKTTPPVLDSDGSFFLYSKLTVDKSRWQQGNVFSCSVLHEALHAHTTRKELSLSP
light: DIQMTQSPSSLSASVGDRVTITCQASQSLHDKKNLAWYQQKPGQPPKLLIYGASTLESGVPSRFSGSGSGTDFTLTISSLQPEDFATYYCQGEFSCSSADCNTFGQGTKVEIKRTVAAPSVFIFPPSDEQLKSGTASVVCLLNNFYPREAKVQWKVDNALQSGNSQESVTEQDSKDSTYSLSSTLTLSKADYEKHKVYACEVTHQGLSSPVTKSFNRGEC
notes: FcγR-silenced constant region FcgSil
no binding (tested: 8 nM): [7]
no binding (tested: 1000 nM): all other assays above
